The target of this assay is V5-FoTO1 (Taxus media). As to the kind of experiment: co-IP.

For one substance, fold change of the co-IP signal with 400 uM taxadiene in the lysate results are on record in publication PMC11580873.

Consider “T5αH-HA (from UniProt Q6WG30 1-499) (enzyme)”, for which the fold change of the co-IP signal with 400 uM taxadiene in the lysate turned out to be 4 fold.
